Consider 1 molecule from patent US20050032189A1 (published 2005).

This assay addresses T1, Vitronectin receptor, αVβ3 integrin, localized on the HUVEC surface (human, UniProt P06756 31-1048; P05106 27-788).
T1 construct: whole, on cells; Present on bFGF-stimulated HUVEC in the cell adhesion assay; also called integrin αVβ3
Briefly: HUVEC adhesion assay on Saxatilin- and Vitronectin-coated plates.

T1 sequence (P06756 31-1048, chain 1 of 2): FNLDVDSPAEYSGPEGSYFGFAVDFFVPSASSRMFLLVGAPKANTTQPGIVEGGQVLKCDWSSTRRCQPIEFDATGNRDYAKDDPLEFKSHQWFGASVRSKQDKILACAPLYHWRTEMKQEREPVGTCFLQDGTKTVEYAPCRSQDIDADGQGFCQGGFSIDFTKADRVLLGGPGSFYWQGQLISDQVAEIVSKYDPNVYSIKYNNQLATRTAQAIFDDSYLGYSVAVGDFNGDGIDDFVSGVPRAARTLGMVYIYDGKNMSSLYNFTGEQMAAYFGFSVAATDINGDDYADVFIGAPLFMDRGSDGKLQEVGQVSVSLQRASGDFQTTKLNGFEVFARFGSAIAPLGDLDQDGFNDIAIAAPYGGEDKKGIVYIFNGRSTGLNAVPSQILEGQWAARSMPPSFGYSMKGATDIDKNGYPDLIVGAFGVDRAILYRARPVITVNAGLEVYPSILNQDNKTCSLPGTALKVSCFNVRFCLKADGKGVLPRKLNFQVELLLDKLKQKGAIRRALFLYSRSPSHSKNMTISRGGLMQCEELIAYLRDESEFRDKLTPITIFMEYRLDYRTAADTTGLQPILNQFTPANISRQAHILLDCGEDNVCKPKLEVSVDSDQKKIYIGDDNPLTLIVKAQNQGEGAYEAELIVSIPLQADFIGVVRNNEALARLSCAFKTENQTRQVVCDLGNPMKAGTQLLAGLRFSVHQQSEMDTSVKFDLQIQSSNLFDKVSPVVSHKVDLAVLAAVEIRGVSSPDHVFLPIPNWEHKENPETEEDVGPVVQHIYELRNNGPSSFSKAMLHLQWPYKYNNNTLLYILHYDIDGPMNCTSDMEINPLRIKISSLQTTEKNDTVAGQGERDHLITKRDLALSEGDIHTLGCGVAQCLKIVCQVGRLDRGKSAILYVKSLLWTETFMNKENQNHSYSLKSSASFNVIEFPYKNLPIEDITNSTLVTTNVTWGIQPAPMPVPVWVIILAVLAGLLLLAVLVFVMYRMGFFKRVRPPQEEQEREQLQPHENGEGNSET
T1 sequence (P05106 27-788, chain 2 of 2): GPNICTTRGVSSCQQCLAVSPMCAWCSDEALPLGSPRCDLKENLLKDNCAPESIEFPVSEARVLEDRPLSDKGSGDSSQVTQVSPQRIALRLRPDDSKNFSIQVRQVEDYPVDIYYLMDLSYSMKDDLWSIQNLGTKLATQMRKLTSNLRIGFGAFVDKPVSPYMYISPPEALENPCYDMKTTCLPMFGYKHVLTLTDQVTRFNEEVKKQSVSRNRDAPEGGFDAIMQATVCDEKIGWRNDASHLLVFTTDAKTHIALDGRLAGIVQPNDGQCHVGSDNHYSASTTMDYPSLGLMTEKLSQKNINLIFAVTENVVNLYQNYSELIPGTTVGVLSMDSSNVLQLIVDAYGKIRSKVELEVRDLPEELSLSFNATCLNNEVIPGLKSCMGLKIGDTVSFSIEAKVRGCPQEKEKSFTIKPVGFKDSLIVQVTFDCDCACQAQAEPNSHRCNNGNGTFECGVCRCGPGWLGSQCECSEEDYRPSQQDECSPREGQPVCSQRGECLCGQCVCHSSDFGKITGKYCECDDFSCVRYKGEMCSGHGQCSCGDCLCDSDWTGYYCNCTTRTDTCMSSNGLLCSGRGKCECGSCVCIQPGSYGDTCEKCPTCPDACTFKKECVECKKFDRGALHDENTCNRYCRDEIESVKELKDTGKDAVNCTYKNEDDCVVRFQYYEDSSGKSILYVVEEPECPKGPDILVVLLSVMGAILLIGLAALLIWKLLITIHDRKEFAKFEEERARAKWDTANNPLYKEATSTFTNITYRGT

B1: recombinant Saxatilin (ligand)
chain: EAGEECDCGAPANPCCDAATCKLRPGAQCAEGLCCDQCRFMKEGTICRMARGDDMDDYCNGISAGCPRNPFHA
In the case of B1, the binding result is “binds”.
